WO2021032966A1

Biological target: Ab42 oligomers (formed during the in vitro aggregation reaction of Ab42)
Assay: time-course indirect ELISA on samples of the Ab42 aggregation reaction

Ab42 oligomers (formed during the in vitro aggregation reaction of Ab42), sequence (peptide, as listed by the source): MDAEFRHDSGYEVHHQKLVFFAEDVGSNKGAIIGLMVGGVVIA

- fold of ELISA absorbance at 1 hour of incubation over the initial time of aggregation: 3 fold
B1: DesAb-O (VHH)
VHH: EVQLVESGGGLVQPGGSLRLSCAASGFNIKDTYIGWVRRAPGKGEEWVASIYPTNGYTRYADSVKGRFTISADTSKNTAYLQMNSLRAEDTAVYYCAAGSESAFGRAEEEAAAWGQGTLVTVSS
